This is an account of results in article PMC10728069.

The chains are these.
B1: Bsr-d1 promoter probe 3 (dsDNA)
DNA 1: CTACGTACTATACAGCTTGATTAATTAG
DNA 2: CTAATTAATCAAGCTGTATAGTACGTAG
B2: Bsr-d1 promoter probe 2 (dsDNA)
DNA 1: ACCGCTCGCTGCTGCTGCTACGTACTA
DNA 2: TAGTACGTAGCAGCAGCAGCGAGCGGT
B3: Bsr-d1 promoter probe 1 (dsDNA)
DNA 1: AATCCCATCAAATCATCCACCGCTCGCT
DNA 2: AGCGAGCGGTGGATGATTTGATGGGATT
B4: Bsr-d1 promoter probe 5 (dsDNA)
DNA 1: GGTTTTACGACGACGGCAACGGGGACAGAT
DNA 2: ATCTGTCCCCGTTGCCGTCGTCGTAAAACC
B5: Bsr-d1 promoter probe 4 (dsDNA)
DNA 1: AGCTTGATTAATTAGGTTTTACGACGAC
DNA 2: GTCGTCGTAAAACCTAATTAATCAAGCT
B6: probe 1 mutant competitor (dsDNA)
DNA 1: AATCCCATCAAATCATCCAAAAAAAAAT
DNA 2: ATTTTTTTTTGGATGATTTGATGGGATT
B7: probe 2 mutant competitor (dsDNA)
DNA 1: ACTAAAGAGAGCTGCTGCTACGTACTA
DNA 2: TAGTACGTAGCAGCAGCTCTCTTTAGT

One series deals with T1, His-MoSPAB1ΔSP (Magnaporthe oryzae, UniProt G4N0C3 22-298). In words: EMSA; […], buffer not stated; […]. The conditions noted are these: protein: recombinant; tags: His, ProS2 (pCold-ProS2); label: 5' biotin (both strands); blunt. Background: A gel shift assay detects complexes by their altered migration in electrophoresis.
Regarding B1, the binding result is “binds”. As to B2, the binding result is on record as “binds”. On to B3, for which the binding result is recorded as “binds”.

For B4, the binding result is on record as “binds”. Same read-out and setting: under B5 stands “binds”.

For a further series, the target named is T1, His-MoSPAB1ΔSP. In words: competition; […], buffer not stated; […]. Particulars: protein: recombinant; tags: His, ProS2 (pCold-ProS2); blunt.
Take B6: the binding result is “no binding”. As for B7, the binding result is listed as “no binding”.
